Broadly, the stoichiometry N is a count of units in the complex or per binding partner.

These results are taken from paper PMC8649778.

This assay deals with APRc_(110–231)His, soluble domain of APRc fused to a C-terminal His tag (Rickettsia conorii) (UniProt Q92FY8). Briefly: shift of migration in nonreducing SDS-PAGE with Western blot.

As for “APRc_(110–231)His, soluble domain of APRc fused to a C-terminal His tag (from UniProt Q92FY8 110-231) (domain or fragment)”, the stoichiometry N was found to be 2.
